Key:
[1] = biological target: BCMA on BCMA-expressing cells (H929 / NCI-H929, MM1.S, U266, Daudi) (human) (UniProt Q02223); assay: flow cytometry on H929 cells; antibody 0.098 ng/ml
[2] = biological target: BCMA on BCMA-expressing cells (H929 / NCI-H929, MM1.S, U266, Daudi) (human) (UniProt Q02223); assay: flow cytometry on H929 cells; antibody 0.781 ng/ml
[3] = biological target: BCMA on BCMA-expressing cells (H929 / NCI-H929, MM1.S, U266, Daudi) (human) (UniProt Q02223); assay: flow cytometry on H929 cells; antibody 1.560 ng/ml
[4] = biological target: BCMA on BCMA-expressing cells (H929 / NCI-H929, MM1.S, U266, Daudi) (human) (UniProt Q02223); assay: flow cytometry on H929 cells; antibody 6.250 ng/ml
[5] = biological target: BCMA on BCMA-expressing cells (H929 / NCI-H929, MM1.S, U266, Daudi) (human) (UniProt Q02223); assay: flow cytometry on H929 cells; antibody 25.000 ng/ml
[6] = biological target: BCMA on BCMA-expressing cells (H929 / NCI-H929, MM1.S, U266, Daudi) (human) (UniProt Q02223); assay: flow cytometry on MM1.S cells; antibody 0.195 ng/ml
[7] = biological target: BCMA on BCMA-expressing cells (H929 / NCI-H929, MM1.S, U266, Daudi) (human) (UniProt Q02223); assay: flow cytometry on MM1.S cells; antibody 0.391 ng/ml
[8] = biological target: recombinant BCMA (R&D Systems, catalog no. 193-BC) (human) (UniProt Q02223); assay: competitive ELISA, plate-bound BCMA; Ab 0.002 ng/mL; competitor APRIL 7.81 ng/mL
[9] = biological target: recombinant BCMA (R&D Systems, catalog no. 193-BC) (human) (UniProt Q02223); assay: competitive ELISA, plate-bound BCMA; Ab 0.002 ng/mL; competitor APRIL 31.25 ng/mL
[10] = biological target: recombinant BCMA (R&D Systems, catalog no. 193-BC) (human) (UniProt Q02223); assay: competitive ELISA, plate-bound BCMA; Ab 0.002 ng/mL; competitor APRIL 62.50 ng/mL
[11] = biological target: recombinant BCMA (R&D Systems, catalog no. 193-BC) (human) (UniProt Q02223); assay: competitive ELISA, plate-bound BCMA; Ab 0.020 ng/mL; competitor APRIL 15.63 ng/mL
[12] = biological target: recombinant BCMA (R&D Systems, catalog no. 193-BC) (human) (UniProt Q02223); assay: competitive ELISA, plate-bound BCMA; Ab 0.020 ng/mL; competitor APRIL 62.50 ng/mL
[13] = biological target: recombinant BCMA (R&D Systems, catalog no. 193-BC) (human) (UniProt Q02223); assay: competitive ELISA, plate-bound BCMA; Ab 0.200 ng/mL; competitor APRIL 15.63 ng/mL
[14] = biological target: recombinant BCMA (R&D Systems, catalog no. 193-BC) (human) (UniProt Q02223); assay: competitive ELISA, plate-bound BCMA; Ab 0.200 ng/mL; competitor APRIL 62.50 ng/mL
[15] = biological target: recombinant BCMA (R&D Systems, catalog no. 193-BC) (human) (UniProt Q02223); assay: competitive ELISA, plate-bound BCMA; Ab 2.000 ng/mL; competitor APRIL 31.25 ng/mL
[16] = biological target: recombinant BCMA (R&D Systems, catalog no. 193-BC) (human) (UniProt Q02223); assay: competitive ELISA, plate-bound BCMA; Ab 2.000 ng/mL; competitor APRIL 62.50 ng/mL
[17] = biological target: recombinant BCMA (R&D Systems, catalog no. 193-BC) (human) (UniProt Q02223); assay: competitive ELISA, plate-bound BCMA; Ab 20.000 ng/mL; competitor APRIL 0.00 ng/mL
[18] = biological target: recombinant BCMA (R&D Systems, catalog no. 193-BC) (human) (UniProt Q02223); assay: competitive ELISA, plate-bound BCMA; Ab 0.002 ng/mL; competitor APRIL 125.00 ng/mL
[19] = biological target: recombinant BCMA (R&D Systems, catalog no. 193-BC) (human) (UniProt Q02223); assay: competitive ELISA, plate-bound BCMA; Ab 2.000 ng/mL; competitor APRIL 125.00 ng/mL
[20] = biological target: recombinant BCMA (R&D Systems, catalog no. 193-BC) (human) (UniProt Q02223); assay: competitive ELISA, plate-bound BCMA; Ab 20.000 ng/mL; competitor APRIL 31.25 ng/mL
[21] = biological target: recombinant BCMA (R&D Systems, catalog no. 193-BC) (human) (UniProt Q02223); assay: competitive ELISA, plate-bound BCMA; Ab 20.000 ng/mL; competitor APRIL 62.50 ng/mL
[22] = biological target: recombinant BCMA (R&D Systems, catalog no. 193-BC) (human) (UniProt Q02223); assay: competitive ELISA, plate-bound BCMA; Ab 20.000 ng/mL; competitor APRIL 125.00 ng/mL
[23] = biological target: recombinant BCMA (R&D Systems, catalog no. 193-BC) (human) (UniProt Q02223); assay: competitive ELISA, plate-bound BCMA; Ab 20.000 ng/mL; competitor APRIL 250.00 ng/mL
[24] = biological target: recombinant BCMA (R&D Systems, catalog no. 193-BC) (human) (UniProt Q02223); assay: competitive ELISA, plate-bound BCMA; Ab 20.000 ng/mL; competitor APRIL 500.00 ng/mL
[25] = biological target: recombinant BCMA (R&D Systems, catalog no. 193-BC) (human) (UniProt Q02223); assay: competitive ELISA, plate-bound BCMA; Ab 200.000 ng/mL; competitor APRIL 125.00 ng/mL
[26] = biological target: recombinant BCMA (R&D Systems, catalog no. 193-BC) (human) (UniProt Q02223); assay: competitive ELISA, plate-bound BCMA; Ab 200.000 ng/mL; competitor APRIL 500.00 ng/mL

Chain of BCMA on BCMA-expressing cells (H929 / NCI-H929, MM1.S, U266, Daudi) (human) (Q02223 whole entry): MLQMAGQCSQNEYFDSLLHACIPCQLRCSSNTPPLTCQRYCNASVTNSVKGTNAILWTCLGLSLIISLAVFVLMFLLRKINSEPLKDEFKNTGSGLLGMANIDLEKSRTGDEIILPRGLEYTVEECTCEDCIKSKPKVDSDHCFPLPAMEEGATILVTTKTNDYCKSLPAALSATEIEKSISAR
Chain of recombinant BCMA (R&D Systems, catalog no. 193-BC) (human) (Q02223 5-51 limits assumed): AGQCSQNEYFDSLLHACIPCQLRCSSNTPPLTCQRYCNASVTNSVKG

B1: anti-BCMA heavy chain-only antibody (UniAb) with the VH of SEQ ID NO: 12 (antibody, V domains shown)
VH: QVQLVESGGGLVQPGGSLRLSCVASGFTFSSNAMSWVRQAPGKGLEWVSAISGSGDYTHYSDSVKGRFTISRDNSKNTLYLQMNSLRAEDTAVYYCAKEVPGGPLVDFDSRGQGTLVTVSS
notes: Heavy chain-only antibody from UniRat; also called Clone ID No: 316302
MFI [1]: 5060 | MFI [2]: 5060 | MFI [3]: 5100 | MFI [4]: 5240 | MFI [5]: 5480 | MFI [6]: 2070 | MFI [7]: 2070 | A450-A570 [8]: 0.0607 | A450-A570 [9]: 0.058 | A450-A570 [10]: 0.067 | A450-A570 [11]: 0.0614 | A450-A570 [12]: 0.0629 | A450-A570 [13]: 0.0661 | A450-A570 [14]: 0.0631 | A450-A570 [15]: 0.0875 | A450-A570 [16]: 0.0834 | A450-A570 [17]: 0.466 | A450-A570 [18]: 0.066 | A450-A570 [19]: 0.0736 | A450-A570 [20]: 0.418 | A450-A570 [21]: 0.359 | A450-A570 [22]: 0.203 | A450-A570 [23]: 0.148 | A450-A570 [24]: 0.112 | A450-A570 [25]: 1.37 | A450-A570 [26]: 0.482

B2: AntiX**BCMA_F7E_F7E (bispecific antibody, part only; not given: other chains of three-chain format, not shown: another chain or arm of the molecule)
tandem VH: QVQLVESGGGLVQPGGSLRLSCVASGFTFSSNAMSWVRQAPGKGLEWVSAISGSGDYTHYSDSVKGRFTISRDNSKNTLYLQMNSLRAEDTAVYYCAKEVPGGPLVDFDSRGQGTLVTVSSGGGGSGGGGSQVQLVESGGGLVQPGGSLRLSCVASGFTFSSNAMSWVRQAPGKGLEWVSAISGSGDYTHYSDSVKGRFTISRDNSKNTLYLQMNSLRAEDTAVYYCAKEVPGGPLVDFDSRGQGTLVTVSS
MFI [1]: 5070 | MFI [2]: 5020 | MFI [3]: 5060 | MFI [4]: 5220 | MFI [5]: 6610 | MFI [6]: 2010 | MFI [7]: 2030 | A450-A570 [8]: 0.0602 | A450-A570 [9]: 0.0528 | A450-A570 [10]: 0.0569 | A450-A570 [11]: 0.0584 | A450-A570 [12]: 0.0577 | A450-A570 [13]: 0.0587 | A450-A570 [14]: 0.0595 | A450-A570 [15]: 0.121 | A450-A570 [16]: 0.098 | A450-A570 [17]: 0.648 | A450-A570 [18]: 0.0607 | A450-A570 [19]: 0.108 | A450-A570 [20]: 0.828 | A450-A570 [21]: 0.537 | A450-A570 [22]: 0.637 | A450-A570 [23]: 0.413 | A450-A570 [24]: 0.253 | A450-A570 [25]: 2.3 | A450-A570 [26]: 1.41

Source: US20230257473A1 (TENEOBIO, published 2023)
